Measured values from publication PMC2172679.

Biological target: p150^Glued subunit of dynactin (endogenous in melanophore extracts) (Xenopus laevis (endogenous in melanophores)) (UniProt Q6PCJ1)
Assay: co-IP

Sequence of UniProt Q6PCJ1 (Q6PCJ1 whole entry): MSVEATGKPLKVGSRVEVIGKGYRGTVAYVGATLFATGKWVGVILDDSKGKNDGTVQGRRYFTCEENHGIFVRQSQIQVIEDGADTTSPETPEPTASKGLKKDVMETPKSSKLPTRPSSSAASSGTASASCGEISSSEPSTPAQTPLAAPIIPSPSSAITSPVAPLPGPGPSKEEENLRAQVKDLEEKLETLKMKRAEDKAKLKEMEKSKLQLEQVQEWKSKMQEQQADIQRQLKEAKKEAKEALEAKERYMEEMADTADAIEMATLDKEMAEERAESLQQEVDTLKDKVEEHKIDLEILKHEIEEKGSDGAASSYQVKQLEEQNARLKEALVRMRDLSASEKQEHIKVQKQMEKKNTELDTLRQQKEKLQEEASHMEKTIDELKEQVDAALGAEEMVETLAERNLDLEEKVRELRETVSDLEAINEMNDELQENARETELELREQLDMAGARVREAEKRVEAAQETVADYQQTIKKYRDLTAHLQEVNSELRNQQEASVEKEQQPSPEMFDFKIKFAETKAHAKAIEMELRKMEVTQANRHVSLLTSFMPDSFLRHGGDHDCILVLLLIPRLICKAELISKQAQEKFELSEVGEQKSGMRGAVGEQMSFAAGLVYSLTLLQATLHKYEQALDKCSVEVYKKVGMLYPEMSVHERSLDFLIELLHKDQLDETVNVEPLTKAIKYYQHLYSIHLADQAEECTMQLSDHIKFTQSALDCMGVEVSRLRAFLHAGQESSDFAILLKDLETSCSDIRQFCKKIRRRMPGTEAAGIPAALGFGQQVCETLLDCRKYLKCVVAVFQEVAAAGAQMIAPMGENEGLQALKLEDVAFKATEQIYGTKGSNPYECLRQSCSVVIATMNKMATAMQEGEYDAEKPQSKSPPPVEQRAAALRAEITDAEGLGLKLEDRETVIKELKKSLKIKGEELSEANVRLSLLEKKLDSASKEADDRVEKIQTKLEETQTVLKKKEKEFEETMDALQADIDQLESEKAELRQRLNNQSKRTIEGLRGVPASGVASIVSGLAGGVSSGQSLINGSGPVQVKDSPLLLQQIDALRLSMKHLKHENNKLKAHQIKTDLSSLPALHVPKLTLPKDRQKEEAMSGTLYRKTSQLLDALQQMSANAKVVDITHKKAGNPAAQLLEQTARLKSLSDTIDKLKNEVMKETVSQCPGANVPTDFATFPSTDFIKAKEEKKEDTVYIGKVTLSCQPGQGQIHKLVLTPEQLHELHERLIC

percent of the total pool co-precipitated: 1%
Substance: kinesin II (Xenopus, endogenous in melanophore extracts) (complex)
